Test results taken from patent US20250188185A1 (KOREA UNIVERSITY RESEARCH AND BUSINESS FOUNDATION, published 2025).

Columns and labels:
FcγRIIIa-158F-GST = molecular target: T1, FcγRIIIa-158F-GST (human, UniProt P08637 17-208); assay: ELISA, FcγRIIIa-158F-GST coated at 4 µg/ml, antibody titrated, HRP-Protein L detection
T1 construct: not shown: GST (glutathione S-transferase) fusion partner
Protocol: After washing, antibody reaction was performed for 1 hour at room temperature, and then washed using 50 μl of HRP-Protein L (GenScript, M00098). 50 μl of a 1-Step Ultra TMB-ELISA substrate solution (Thermo Fisher Scientific, 34028) was added to develop color, and then added with 50 μl each of 2 M H₂SO₄ to terminate the reaction. Absorbance was measured using an Epoch microplate spectrophotometer (BioTek).

[1] = molecular target: T2, cynomolgus monkey FcγRIII-GST (cynomolgus monkey, UniProt Q8SPW2 17-208); assay: ELISA, cynomolgus monkey FcγRIII-GST coated at 4 µg/ml, antibody titrated, HRP-Protein L detection
T2 construct: GST fusion form made in Expi293F cells, purified on glutathione resin; not shown: GST fusion partner
Protocol: Specifically, 50 μl of mouse FcγRIV-GST and cynomolgus monkey FcγRIII-GST diluted to 4 μg/ml in 0.05 M Na₂CO₃ pH 9.6 were immobilized on a flat bottom polystyrene high bind 96-well plate (Costar, 3590) for 16 hours at 4° C., respectively, and then blocked with 100 μl of 4% skim milk (GenomicBase, SKI400) at room temperature for 2 hours. […] After washing, antibody reaction was performed for 1 hour at room temperature, and then washed using 50 μl of HRP-Protein L (GenScript, M00098). 50 μl of a 1-Step Ultra TMB-ELISA substrate solution (Thermo Fisher Scientific, 34028) was added to develop color, and then added with 50 μl each of 2 M H₂SO₄ to terminate the reaction. Absorbance was measured using an Epoch microplate spectrophotometer (BioTek).

T2 sequence (Q8SPW2 17-208): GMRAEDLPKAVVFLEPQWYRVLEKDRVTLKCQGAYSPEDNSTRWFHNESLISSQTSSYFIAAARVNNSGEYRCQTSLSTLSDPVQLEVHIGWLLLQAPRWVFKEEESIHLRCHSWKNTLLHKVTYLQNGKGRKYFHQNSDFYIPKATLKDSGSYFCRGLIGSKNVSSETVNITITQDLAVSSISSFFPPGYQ
T1 sequence (P08637 17-208): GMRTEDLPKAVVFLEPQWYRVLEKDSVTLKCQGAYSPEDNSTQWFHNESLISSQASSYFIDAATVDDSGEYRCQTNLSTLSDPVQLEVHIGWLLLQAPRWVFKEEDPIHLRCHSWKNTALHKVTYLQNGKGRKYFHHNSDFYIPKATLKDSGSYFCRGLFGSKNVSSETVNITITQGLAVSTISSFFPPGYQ

B1: rituximab Fc variant RTX-PS101 (antibody, human IgG1, kappa)
heavy: QVQLQQPGAELVKPGASVKMSCKASGYTFTSYNMHWVKQTPGRGLEWIGAIYPGNGDTSYNQKFKGKATLTADKSSSTAYMQLSSLTSEDSAVYYCARSTYYGGDWYFNVWGAGTTVTVSAASTKGPSVFPLAPSSKSTSGGTAALGCLVKDYFPEPVTVSWNSGALTSGVHTFPAVLQSSGLYSLSSVVTVPSSSLGTQTYICNVNHKPSNTKVDKKAEPKSCDKTHTCPPCPAPELLGGPSVFLLPPKIKDTLMISRTPEVTCVVVDVSHEDPEVKFNWYVDGVEVHNAKTKPPEEQYNSTLRVVSILTVLHQDWLNGKEYKCKVSNKALPLPEEKTISKQKGQPREPQVYTLPPSRDELTKNQVSLTCLVKGFYPSDIAVEWESNGQQENNYKTTPPVLDSDGSFFLYSKLTVDKSRWQQGNVFSCSVMHEALHNHYTQKSLSLSPGK
light: QIVLSQSPAILSASPGEKVTMTCRASSSVSYIHWFQQKPGSSPKPWIYATSNLASGVPVRFSGSGSGTSYSLTISRVEAEDAATYYCQQWTSNPPTFGGGTKLEIKRTVAAPSVFIFPPSDEQLKSGTASVVCLLNNFYPREAKVQWKVDNALQSGNSQESVTEQDSKDSTYSLSSTLTLSKADYEKHKVYACEVTHQGLSSPVTKSFNRGEC
FcγRIIIa-158F-GST
  EC50 (read off the curve): ~3 nM
[1]
  EC50 (read off the curve): ~3 nM

B2: rituximab Fc variant RTX-PS102 (antibody)
heavy: QVQLQQPGAELVKPGASVKMSCKASGYTFTSYNMHWVKQTPGRGLEWIGAIYPGNGDTSYNQKFKGKATLTADKSSSTAYMQLSSLTSEDSAVYYCARSTYYGGDWYFNVWGAGTTVTVSAASTKGPSVFPLAPSSKSTSGGTAALGCLVKDYFPEPVTVSWNSGALTSGVHTFPAVLQSSGLYSLSSVVTVPSSSLGTQTYICNVNHKPSNTKVDKKAEPKSCDKTRTCPPCPAPELLGGPSVFLLPPKIKDTLMISRTPEVTCVVVDVSHEDPEVKFNWYVDGVEVHNAKTKPPEEQYNSTLRVISILTVLHQDWLNGKEYKCKVSNKALPLPEEKTISKQKGQPREPQVYTLPPSRDELTKNQVSLTCLVKGFYPSDIAVEWESNGQQENNYKTTPPVLDSDGSFFLYSKLTVDKSRWQQGNVFSCSVMHEALHNHYTQKSLSLSPGK
light: QIVLSQSPAILSASPGEKVTMTCRASSSVSYIHWFQQKPGSSPKPWIYATSNLASGVPVRFSGSGSGTSYSLTISRVEAEDAATYYCQQWTSNPPTFGGGTKLEIKRTVAAPSVFIFPPSDEQLKSGTASVVCLLNNFYPREAKVQWKVDNALQSGNSQESVTEQDSKDSTYSLSSTLTLSKADYEKHKVYACEVTHQGLSSPVTKSFNRGEC
[1]
  EC50 (read off the curve): ~3 nM

B3: rituximab Fc variant RTX-PS107 (antibody, human IgG1, kappa)
heavy: QVQLQQPGAELVKPGASVKMSCKASGYTFTSYNMHWVKQTPGRGLEWIGAIYPGNGDTSYNQKFKGKATLTADKSSSTAYMQLSSLTSEDSAVYYCARSTYYGGDWYFNVWGAGTTVTVSAASTKGPSVFPLAPSSKSTSGGTAALGCLVKDYFPEPVTVSWNSGALTSGVHTFPAVLQSSGLYSLSSVVTVPSSSLGTQTYICNVNHKPSNTKVDKKAEPKSCDKTHTCPPCPAPELLGGPSVFLLPPKIKDTLMISRTPEVTCVVVDVSHEDPEVKFNWYVDGVEVHNAKTKPPEEQYNSTLRVVSILTVLHQDWLNGKEYKCKVSNKALPLPEEKTISKQKGQPREPQVYTLPPSRGELTKNQVSLTCLVKGFYPSDIAVEWESNGQQENNYKTTPPVLDSDGSFFLYSKLTVDKSRWQQGNVFSCSVMHEALHNHYTQKSLSLSPGK
light: QIVLSQSPAILSASPGEKVTMTCRASSSVSYIHWFQQKPGSSPKPWIYATSNLASGVPVRFSGSGSGTSYSLTISRVEAEDAATYYCQQWTSNPPTFGGGTKLEIKRTVAAPSVFIFPPSDEQLKSGTASVVCLLNNFYPREAKVQWKVDNALQSGNSQESVTEQDSKDSTYSLSSTLTLSKADYEKHKVYACEVTHQGLSSPVTKSFNRGEC
FcγRIIIa-158F-GST
  EC50 (read off the curve): ~3 nM
[1]
  EC50 (read off the curve): ~3 nM
